Laboratory results published in patent publication US11135301B2, “Triblock polypeptide-based nanoparticles for the delivery of hydrophilic drugs” (Duke University, priority 2016, dated 2021).
Several values for one entry are separate records, joined by “and”; a condition that tells them apart may be missing. Equal entries are not always repeated. Structures can show the parent of a compound that is named as a salt.

B1: SKGPG-(AGVPG)160-(YG)6-(CGG)8-WP (protein)
chain: SKGPGAGVPGAGVPGAGVPGAGVPGAGVPGAGVPGAGVPGAGVPGAGVPGAGVPGAGVPGAGVPGAGVPGAGVPGAGVPGAGVPGAGVPGAGVPGAGVPGAGVPGAGVPGAGVPGAGVPGAGVPGAGVPGAGVPGAGVPGAGVPGAGVPGAGVPGAGVPGAGVPGAGVPGAGVPGAGVPGAGVPGAGVPGAGVPGAGVPGAGVPGAGVPGAGVPGAGVPGAGVPGAGVPGAGVPGAGVPGAGVPGAGVPGAGVPGAGVPGAGVPGAGVPGAGVPGAGVPGAGVPGAGVPGAGVPGAGVPGAGVPGAGVPGAGVPGAGVPGAGVPGAGVPGAGVPGAGVPGAGVPGAGVPGAGVPGAGVPGAGVPGAGVPGAGVPGAGVPGAGVPGAGVPGAGVPGAGVPGAGVPGAGVPGAGVPGAGVPGAGVPGAGVPGAGVPGAGVPGAGVPGAGVPGAGVPGAGVPGAGVPGAGVPGAGVPGAGVPGAGVPGAGVPGAGVPGAGVPGAGVPGAGVPGAGVPGAGVPGAGVPGAGVPGAGVPGAGVPGAGVPGAGVPGAGVPGAGVPGAGVPGAGVPGAGVPGAGVPGAGVPGAGVPGAGVPGAGVPGAGVPGAGVPGAGVPGAGVPGAGVPGAGVPGAGVPGAGVPGAGVPGAGVPGAGVPGAGVPGAGVPGAGVPGAGVPGAGVPGAGVPGAGVPGAGVPGAGVPGAGVPGAGVPGAGVPGAGVPGAGVPGAGVPGAGVPGAGVPGAGVPGAGVPGAGVPGAGVPGAGVPGAGVPGAGVPGAGVPGAGVPGAGVPGAGVPGAGVPGAGVPGYGYGYGYGYGYGCGGCGGCGGCGGCGGCGGCGGCGGWP

Assays:
[1] = Temperature-programmed turbidimetry (transition temperature Tt); format: physicochemical; conditions: for Tt, Concentration 25 μM / Tt, Concentration 50 μM / Tt, Concentration 100 μM: ATBP or ATBP-SMM conjugate in PBS; for Tt, Concentration 25 μM: ATBP concentration 25 μM; for Tt, Concentration 50 μM: ATBP concentration 50 μM; for Tt, Concentration 100 μM: ATBP concentration 100 μM
Description: Temperature-Programmed Turbidimetry:
To determine the Tt ATBP-SMM conjugate or parent ATBP were resuspended in PBS at ATBP concentrations of […] and the optical density of each sample was measured at 350 nm by ramping the temperature at a rate of 1° C./min on a temperature-controlled UV-vis spectrophotometer (Cary 300 Bio; Varian Instruments, Palo Alto, Calif.). The Tt was determined from the inflection point of the turbidity profile. […]

[2] = Static light scattering (Rg, Nagg, shape factor); format: physicochemical; conditions: for ρ (Rg/Rh) shape factor: computed from DLS and SLS data; for Nagg (chains per nanoparticle) / Rg: nanoparticles; for Nagg (chains per nanoparticle): SLS; for Rg: SLS partial Zimm plot
Description: (§1) Static and Dynamic Light Scattering:
(§2) Static and dynamic light scattering measurements were performed on an ALV/CGS-3 goniometer system (Langen, Germany) to determine the Rh and Rg of the ATBP and ATBP-SMM nanoparticle. For the ALV/CGS-3 goniometer system, ATBP and ATBP-SMM conjugates were resuspended in PBS and filtered through 0.22 μm Millex-GV filters into a 10 mm diameter disposable borosilicate glass tube (Fisher). SLS and DLS were measured simultaneously at 22° C. for angles between 30°-150° at 5° increments, where the measurements at each angle was of 3 runs for 15 seconds. The differential refractive index (dn/dc) was quantified by determining the refractive index at five different dilutions using an Abbemat 500 refractometer (Anton Paar, Graz, Austria). DLS data were analyzed by fitting the autocorrelation function to a biexponential decay using the HDRC software package (Germany). The Rh was plotted against angle and extrapolated to zero scattering angle in order to eliminate the effect of the form factor and observe the true hydrodynamic radius. Partial Zimm plots were used to analyze the SLS measurements and ALV/Dynamic and Static FIT and PLOT software was used to determine the Rg and MW of the nanoparticles. The Nagg was calculated by dividing the MW of the nanoparticles by the MW of the ATBP or ATBP-SMM conjugate.
(§3) The detailed procedure was identical to that used to characterize ATBP-SMM conjugates.

[3] = Dynamic light scattering (hydrodynamic radius); format: physicochemical; conditions: ATBP or ATBP-SMM conjugate nanoparticles, DLS in PBS at 22° C.
Description: as §1, §2, §3

[4] = SMM conjugation ratio by Ellman's reagent assay; format: physicochemical
Description: Determination of SMM Conjugation Ratio:
Following purification, 2-3 mg of lyophilized ATBP was dissolved in 1 mL ddH20. In order to break any pre-existing disulfide bonds between unconjugated cysteine residues, 100 μL of the conjugate was incubated with 100 μL of Immobilized TCEP Reducing Gel (Thermo Fisher Scientific; Rockford, Ill.) for 1 hr at 25° C. Included spin columns were utilized to separate the TCEP beads from the ATBP conjugates. The solution was then split for use in two parallel assays. To determine the ATBP concentration, a 96-well bicinchoninic acid assay (Thermo Fisher Scientific) was used on a Victor3™ microplate reader (Perkin Elmer; Waltham, Mass.). 10 μL of ATBP solution was mixed with 200 μL of BCA working reagent, incubated for 30 min at 37° C., and was compared to an ATBP standard curve (100, 50, 25, 10, 5, 0 μM) fit to a 2nd order polynomial in order to estimate the ATBP concentration for the absorbance at 560 nm. Each conjugate was measured in triplicate. To determine the concentration of free thiols, a 96-well Ellman's assay was developed for use on the Victor3™ microplate reader at an absorbance of 405 nm. 40 μL of an ATBP solution was mixed with 200 μL of a working reagent (25 μM Ellman's reagent in 100 mM phosphate buffer, 1 mM EDTA, pH 8.0), incubated for 2 h at 25° C., and was compared to a standard curve of the ATBP prior to conjugation (100, 50, 25, 10, 5, 0 μM). […] The conjugation ratio was the difference between the number of cysteines (8/ATBP) and the calculated number of free cysteines.

[5] = Pyrene fluorescence assay (critical aggregation concentration); format: physicochemical
Description: The CAC of ATBP and ATBP-SMM conjugates were determined by fluorescence spectroscopy using pyrene which was utilized as a probe of the local hydrophobicity. The ratio of the first fluorescence emission peak (I370-373) and the third peak (I381-394) were measured at different ATBP concentrations. The inflection point of the curves was used to determine the CAC.
ATBP-GEM was characterized by DLS, SLS, cryo-TEM, AFM, temperature programmed turbidimetry and pyrene fluorescence assay. The detailed procedure was identical to that used to characterize ATBP-SMM conjugates.

[6] = system: Colo205 human colon cancer cells; assay: In vitro cytotoxicity (MTS), Colo205; format: cell-based; conditions: COLO 205, 72 h, Colo 205 cells, GEM equivalent
Description: (§4) HCT116 and Colo205 human colon cancer cells were procured from Duke Cell Culture Facility and were cultured in complete media containing Minimum Essential Medium Eagle (MEME) supplemented with 10% Fetal Bovine Serum (FBS). Cells were maintained at 37° C. and 5% CO2 and passaged every 2-3 days. […] 20 μL of CellTiter 96 AQueous™ (Promega; Madison, Wis.) 3-(4,5,-[…])-5-(3-carboxymethoxyphenyl)-2-(4-sulfophenyl)-2H-tetrazolium (MTS) solution was added to each well and incubated at 37° C. After 2 h of incubation, the absorbance of the solution was measured at 490 nm with a Victor3 microplate reader (Perkin Elmer; Waltham, Mass.).

[7] = system: HCT116 human colon cancer cells; assay: In vitro cytotoxicity (MTS), HCT116; format: cell-based; conditions: HCT-116, 72 h, HCT-116 cells, GEM equivalent
Description: as §4

[8] = system: subcutaneous HCT116 tumors; assay: Tumor regression, subcutaneous HCT116 xenograft; format: in vivo, mice; conditions: 25 mg·kg^−1 GEM equivalent i.v. on day 0, 2 and 4, n=6
Description: The PBS control or drugs were administered by tail vein infusion (50 μL/min) of 500 μL. Tumor dimensions and BW were determined 3-4 times a week, and the tumor volume was calculated using the equation: volume [mm^3]=length×width×width×1/2.
BW of mice were monitored and the mice were euthanized upon exceeding 15% loss in BW or if their tumors volume was greater than 1000 mm^3. […] The maximum tolerated dose (MTD) was determined in mice with tumors. Kaplan-Meier analysis was used to compare the cumulative survival and the Sidak test, Tukey Test, Wilcoxon test were carried out using GraphPad Prism 6 software.

[9] = reported value in nude mice; cited from earlier work
[10] = Table 1, ATBP or ATBP-SMM conjugate, pyrene assay

Molecule	Tt, Concentration 25 μM [1]	Tt, Concentration 50 μM [1]	Tt, Concentration 100 μM [1]	ρ (Rg/Rh) shape factor [2]	Nagg (chains per nanoparticle) [2]	Rg [2]	Rh [3]	#SMM/ATBP (number of SMM conjugated per ATBP) [4]	CAC [5, 10]	IC50 [6]	IC50 [7]	median survival time [8]	mean tumor volume ([8]; 12 days after treatment)	terminal half-life [9]	Tt ([1]; FIG. 3(G), thermal turbidimetry at 350 nm)	CAC ([5]; pyrene fluorescence assay)
CS(=O)(=O)OCCN1C(=O)C=CC1=O [SMM 3, N-2-Maleimidoethyl mesylate]	45 C	42 C	38 C	1.06	219	115.6 nm	109.1 nm	6.9	3.2 µM	–	–	–	–	–	–	–
CCN1C(=O)C=CC1=O [SMM 6, N-ethyl maleimide]	47 C	46 C	40 C	1.004	115	62.5 nm	62.3 nm	7.1	3.8 µM	–	–	–	–	–	–	–
O=C1C=CC(=O)N1O [SMM 1, N-hydroxymaleimide]	49 C	46 C	41 C	0.81	41	77.0 nm	87.3 nm	7.4	8.2 µM	–	–	–	–	–	–	–
O=C1C=CC(=O)N1c1ccccc1 [SMM 7, N-Phenyl maleimide]	48 C	44 C	41 C	0.905	112	44.4 nm	49.1 nm	7.0	1.6 µM	–	–	–	–	–	–	–
Cl.NCCN1C(=O)C=CC1=O [SMM 2, N-1-(2-Amino-ethyl)-pyrrole-2,5-dione hydrochloride]	49 C	46 C	41 C	1.14	50	141.0 nm	123.5 nm	6.9	6.6 µM	–	–	–	–	–	–	–
CN1C(=O)C=CC1=O [SMM 5, N-methyl maleimide]	45 C	44 C	42 C	0.978	62	45.7 nm	46.8 nm	6.8	4.9 µM	–	–	–	–	–	–	–
CC(C)(C)N1C(=O)C=CC1=O [SMM 8, N-^tbutyl maleimide]	44 C	47 C	41 C	0.963	93	44.5 nm	46.2 nm	6.4	1.5 µM	–	–	–	–	–	–	–
Nc1ccn([C@@H]2O[C@H](CO)[C@@H](O)C2(F)F)c(=O)n1 [GEM, Gemcitabine]	–	–	–	–	–	–	–	–	–	~46.4 nM	~4.1 nM	21 days	343 mm^3	3.4 h	–	–
B1	47 C	44 C	40 C	0.85	62	42.6 nm	50 nm and 50.1 nm	–	3.6 µM	–	–	–	–	–	47 °C	about 3.6 μM
